Assay [1] concerns the target T1, Substantially sericin-depleted silk fibroin from Bombyx mori (dissolved in 9.3 M LiBr, dialysed, then gelled … (Bombyx mori, UniProt P05790 22-5263; P21828 17-262, limits assumed).
T1 construct: also called silk molecule; depolymerized silk fibroin
Briefly: Inferred by the filing from the HPLC ratios of the precipitates. The procedure:
(§1) The amount of 23RGD bound to silk precipitates was quantified by analyzing lyophilized samples. The 23RGD was removed by incubating the samples for 4 hours in a dissolving buffer, then centrifuging on an Eppendorf 5415C (Eppendorf North America Inc., Westbury, N.Y.) at 16,000 g (RCF) for 30 minutes and the supernatant collected. This supernatant was then centrifuged in identical fashion and the final supernatant collected for HPLC analysis using a PerkinElmer Series 200 (PerkinElmer, Waltham, Mass.). The 23RGD peak areas from each curve were compared against a standard curve. 1-Way ANOVA was used to test for significant differences caused by changing silk concentration, 23RGD concentration, and accelerant volume. A Student's t-test was used to test the significance of differences resulting from altered ethanol concentrations.

In assay [2] the target is T1, Substantially sericin-depleted silk …. Briefly: HPLC of 23RGD extracted from silk precipitate, against the calculated ratio. The procedure: as §1
Assay [3] has the same target. Briefly: HPLC of 23RGD extracted from lyophilised silk precipitate; BASE formulation (calculated ratio 5.0). The procedure:
as §1

Assay [4] has the same target. Briefly: HPLC of 23RGD extracted from lyophilised silk precipitate; RHI formulation (high 23RGD, calculated ratio 10.0). The procedure:
as §1

The target is the same in assay [5]. Briefly: HPLC of 23RGD extracted from silk precipitate; ECLO formulation (80% ethanol accelerant), against the calculated ratio. The procedure:
as §1

The target is the same in assay [6]. Briefly: HPLC of 23RGD extracted with dissolving buffer from the rinsed 23RGD-enhanced silk gel, against a 23RGD standard curve. The text has this: 23RGD-infused gels were studied to quantify the amount of 23RGD bound to the silk-hydrogel device as well as the quantity of free 23RGD which might be rinsed free of the device under relevant conditions. Briefly, samples of 23RGD-infused gel were cast and rinsed according to the methods above, with samples of rinse buffer being collected from each rinse for subsequent analysis by HPLC. Additionally, subsequent to the last rinse, the gel samples were mechanically pulverized by means of a stainless steel stirring rod and the adsorbed 23RGD removed by incubation for 4 hours in a dissolving buffer. This mixture of gel and solvent was then centrifuged on an Eppendorf 5415C at 16,000 g RCF for 30 minutes. The supernatant was collected and centrifuged another 30 minutes at 16,000 g RCF after which time the supernatant was collected in a sample vial for HPLC analysis. Samples of rinse buffer from the first and last rinse were centrifuged in the same fashion after being diluted with the same solvent the gel was extracted with in a volumetric ratio of 1 part rinse buffer to 4 parts solvent. To ensure 23RGD-hydrogel device rinse-exposed surface area was not a limiting factor, the same rinse and extraction process was performed upon devices pulverized after gelation and before rinsing.

The target is the same in assay [7]. Briefly: HPLC of 23RGD extracted from lyophilised silk precipitate; AVLO formulation (low accelerant volume, calculated ratio 2.5). The procedure:
as §1

The target is the same in assay [8]. The assay can be described thus: HPLC of 23RGD extracted from lyophilised silk precipitate; SCLO formulation (low silk concentration, calculated ratio 6.7). The procedure: as §1
Assay [9] shares this target. The assay can be described thus: HPLC of 23RGD extracted from lyophilised silk precipitate; AVHI formulation (high accelerant volume, calculated ratio 10.0). The procedure:
as §1

For assay [10] the target is unchanged. The assay can be described thus: HPLC of 23RGD extracted from lyophilised silk precipitate; formulation labelled 0.6S 3R 10:1 (2.45 mg/mL 23RGD in 90% ethanol). The procedure:
as §1

The target is the same in assay [11]. Briefly: HPLC of 23RGD extracted from lyophilised silk precipitate; SCVLO formulation (very low silk concentration, calculated ratio 10.0). The procedure: as §1
For assay [12] the target is unchanged. Briefly: HPLC of 23RGD extracted from lyophilised silk precipitate; group called RMED (1.47 mg/mL 23RGD per paragraph 318, which is RLO in Table 10). The procedure: as §1
Assay [13] has the same target. Briefly: HPLC of 23RGD extracted from lyophilised silk precipitate; group called RLO in this sentence (0.49 mg/mL 23RGD per paragraph 318, which is RVLO in Table 10). The procedure: as §1

The text below walks through data of patent US20110008436A1 (published 2011).

Where no end group is shown, it is not given here.

B1: 23RGD peptide (amphiphilic peptide GRGDIPASSKG4SRL6R-NH2) (peptide)
peptide: GRGDIPASSKGGGGSRLLLLLLR-NH2
notes: also called 23RDG
As for B1, the “apparent saturation, 23RGD:silk ratio” value in assay [1] was approximately 10 mol 23RGD per mol silk. In addition, the “fold of the expected (calculated) bound 23RGD” value was approximately 2 fold in assay [2] and approximately 1.5 fold in [5]. Also, the “23RGD:silk molar ratio bound” value is 8.7 mol 23RGD per mol silk in assay [3]; 10.7 mol 23RGD per mol silk in assay [4]; 3.35 mol 23RGD per mol silk in [6]; 5.2 mol 23RGD per mol silk in assay [7]; 9.9 mol 23RGD per mol silk in assay [8]; 10.5 mol 23RGD per mol silk in assay [9]. In addition, the “23RGD:silk molar ratio bound” value was approximately 10 mol 23RGD per mol silk in assay [10], 11 mol 23RGD per mol silk in [11], 6.95 mol 23RGD per mol silk in assay [12] and 1.1 mol 23RGD per mol silk in assay [13].
